Test results as given in patent publication US20210290733A1, “INJECTABLE MICRONIZED HUMAN INSULIN” (ARVEN ILAC SANAYI VE TICARET ANONIM SIRKETI, priority 2018, published 2021).

Key:
[1] = Particle size measurement of human insulin before and after micronization; assay type: physicochemical
Description: According to one embodiment of the present invention, after micronization, the micronized human insulin has a d(0.1) particle size which is less than 5 μm or less than 3 μm or less than 2 μm.
According to one embodiment of the present invention, the micronized human insulin particles were prepared by using supercritical fluid process.

[2] = Bioactivity test (USP limit, USP 121 Insulin Assays); details: for Bioactivity: USP limit min. 15 IU/mg
Description: According to one embodiment of the present invention, the composition is prepared by based on USP 121 formula (The United States Pharmacopeial Convention 2015, [121] Insulin Assays). This is important in order to minimize the risk of adverse effects, both local and systemic. It is important that human insulin in the composition is used without extra excipients because, its amino acid sequence and biological activity are the same as those of the human body and are safe and have no toxic or side effects.

| Substance | d(0.1) particle size ([1]; After Micronization) | d(0.5) particle size ([1]; After Micronization) | d(0.9) particle size ([1]; After Micronization) | Bioactivity ([2]; After Micronization) | Protein activity at the end of the micronization process (versus before) ([2]; without any change in protein structure) | d(0.1) particle size ([1]; Before Micronization) | d(0.5) particle size ([1]; Before Micronization) | d(0.9) particle size ([1]; Before Micronization) | Bioactivity ([2]; Before Micronization) |
| --- | --- | --- | --- | --- | --- | --- | --- | --- | --- |
| micronized human insulin: recombinant, unmodified human insulin with particle size reduced by supercritical fluid (SAS) process | 1.654 μm | 5.273 μm | 12.54 μm | 34.72 IU/mg | protein activity increased |  |  |  |  |
| human insulin: recombinant human insulin, unmodified primary structure, before micronization |  |  |  |  |  | 1.96 μm | 13.24 μm | 25.12 μm | 16.02 IU/mg |
